US20130280276A1 (Daiichi Sankyo, published 2013)

These binders were tested against mouse Siglec-15 (mouse) (assay: cell-based or functional assay).

| Binder | TRAP activity of mouse osteoclasts formed (RANKL-stimulated mouse bone marrow nonadherent cells) [ng/mL] |
| --- | --- |
| MOR09892 (antibody, human IgG2, lambda, V domains shown) VH: QVQLVESGGGLVQPGGSLRLSCAASGFTFSSYAMHWVRQAPGKGLEWVSYISYSGSNTYYADSVKGRFTISRDNSKNTLYLQMNSLRAEDTAVYYCARGWGGFDYWGQGTLVTVSS VL: DIELTQPPSVSVAPGQTARISCSGDNLPNRYVHWYQQKPGQAPVLVIYDDNNRPSGIPERFSGSNSGNTATLTISGTQAEDEADYYCQSRDLHYSPVFGGGTKLTVLG | ≥ 13 |
| MOR10110 (antibody, human IgG2, lambda, V domains shown) VH: QVQLVESGGGLVQPGGSLRLSCAASGFTFTNYAMNWVRQAPGKGLEWVSYISYSSSNTYYADSVKGRFTISRDNSKNTLYLQMNSLRAEDTAVYYCARGAGLGYDVWGQGTLVTVSS VL: DIELTQPPSVSVAPGQTARISCSGDNLRSKYVYWYQQKPGQAPVLVIYDTNDRPSGIPERFSGSNSGNTATLTISGTQAEDEADYYCQTYDMTSQDVFGGGTKLTVLG | ≥ 13 |
| MOR09281 (antibody, human IgG2, lambda, V domains shown) VH: QVQLVESGGGLVQPGGSLRLSCAASGFTFSNYWMSWVRQAPGKGLEWVSLISYSGSTTYYADSVKGRFTISRDNSKNTLYLQMNSLRAEDTAVYYCARDTPIGMDFWGQGTLVTVSS VL: DIELTQPPSVSVAPGQIARISCSGDNLGSYYAYWYQQKPGQAPVLVIYGDNDRPSGIPERFSGSNSGNTATLTISGTQAEDEADYYCSSYDIVQPYVFGGGTKLTVLG | ≥ 13 |
| MOR09898 (antibody, human IgG2, lambda, V domains shown) VH: QVQLVESGGGLVQPGGSLRLSCAASGFTFSNYWMTWVRQAPGKGLEWVSFISYSGSTTYYADSVKGRFTISRDNSKNTLYLQMNSLRAEDTAVYYCAREGTSSMFDVWGQGTLVTVSS VL: DIELTQPPSVSVAPGQTARISCSGDALRSYYASWYQQKPGQAPVLVIYDDNKRPSGIPERFSGSNSGNTATLTISGTQAEDEADYYCASFTYMSDFVFGGGTKLTVLG | ≥ 13 |
